Assay results published in patent US20050262592.

Experiments:
[1] = target: T1, duckweed-produced human microplasminogen
T1 chain: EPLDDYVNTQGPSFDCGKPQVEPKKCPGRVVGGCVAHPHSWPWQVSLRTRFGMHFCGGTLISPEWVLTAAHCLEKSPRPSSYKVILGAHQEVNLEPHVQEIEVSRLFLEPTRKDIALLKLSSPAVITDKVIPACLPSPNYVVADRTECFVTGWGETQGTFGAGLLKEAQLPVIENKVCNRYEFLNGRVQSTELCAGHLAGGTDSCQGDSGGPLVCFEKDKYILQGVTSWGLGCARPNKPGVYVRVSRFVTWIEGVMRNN

[2] = target: T2, streptokinase, P00779
T2 chain: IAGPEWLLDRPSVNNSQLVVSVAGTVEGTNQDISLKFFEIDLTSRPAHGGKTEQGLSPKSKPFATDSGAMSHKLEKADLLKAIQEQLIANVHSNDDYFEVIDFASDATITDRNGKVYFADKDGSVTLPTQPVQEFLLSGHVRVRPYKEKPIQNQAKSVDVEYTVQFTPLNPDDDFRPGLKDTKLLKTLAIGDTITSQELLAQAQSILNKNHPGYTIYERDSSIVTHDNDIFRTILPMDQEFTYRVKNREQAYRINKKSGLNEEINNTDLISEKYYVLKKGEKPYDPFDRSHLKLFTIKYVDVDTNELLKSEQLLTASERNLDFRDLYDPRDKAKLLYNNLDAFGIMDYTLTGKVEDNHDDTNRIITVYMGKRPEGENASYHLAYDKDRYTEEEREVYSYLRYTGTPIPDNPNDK

B1: tissue plasminogen activator (protein)
chain: SYQVICRDEKTQMIYQQHQSWLRPVLRSNRVEYCWCNSGRAQCHSVPVKSCSEPRCFNGGTCQQALYFSDFVCQCPEGFAGKCCEIDTRATCYEDQGISYRGTWSTAESGAECTNWNSSALAQKPYSGRRPDAIRLGLGNHNYCRNPDRDSKPWCYVFKAGKYSSEFCSTPACSEGNSDCYFGNGSAYRGTHSLTESGASCLPWNSMILIGKVYTAQNPSAQALGLGKHNYCRNPDGDAKPWCHVLKNRRLTWEYCDVPSCSTCGLRQYSQPQFRIKGGLFADIASHPWQAAIFAKHRRSPGERFLCGGILISSCWILSAAHCFQERFPPHHLTVILGRTYRVVPGEEEQKFEVEKYIVHKEFDDDTYDNDIALLQLKSDSSRCAQESSVVRTVCLPPADLQLPDWTECELSGYGKHEALSPFYSERLKEAHVRLYPSSRCTSQHLLNRTVTDNMLCAGDTRSGGPQANLHDACQGDSGGPLVCLNDGRMTLVGIISWGLGCGQKDVPGVYTKVTNYLDWIRDNMRP
Q: How did the “Western blot: production of the B chain of plasmin” value [1] turn out when B1 was run?
A: Western blot analysis confirmed the production of the B chain of plasmin following activation of duckweed-produced microplasminogen with either urokinase or tPA

B2: duckweed-produced human microplasminogen (protein)
chain: EPLDDYVNTQGPSFDCGKPQVEPKKCPGRVVGGCVAHPHSWPWQVSLRTRFGMHFCGGTLISPEWVLTAAHCLEKSPRPSSYKVILGAHQEVNLEPHVQEIEVSRLFLEPTRKDIALLKLSSPAVITDKVIPACLPSPNYVVADRTECFVTGWGETQGTFGAGLLKEAQLPVIENKVCNRYEFLNGRVQSTELCAGHLAGGTDSCQGDSGGPLVCFEKDKYILQGVTSWGLGCARPNKPGVYVRVSRFVTWIEGVMRNN
Q: With B2 as the protein, how does the “activity following activation by streptokinase (chromogenic substrate assay as for plasminogen)” value [2] read?
A: The duckweed-produced microplasminogen showed some level of activity in the absence of streptokinase, and a significant increase in activity following activation by streptokinase

B3: duckweed-produced human plasminogen (protein)
chain: KVYLSECKTGNGKNYRGTMSKTKNGITCQKWSSTSPHRPRFSPATHPSEGLEENYCRNPDNDPQGPWCYTTDPEKRYDYCDILECEEECMHCSGENYDGKISKTMSGLECQAWDSQSPHAHGYIPSKFPNKNLKKNYCRNPDRELRPWCFTTDPNKRWELCDIPRCTTPPPSSGPTYQCLKGTGENYRGNVAVTVSGHTCQHWSAQTPHTHNRTPENFPCKNLDENYCRNPDGKRAPWCHTTNSQVRWEYCKIPSCDSSPVSTEQLAPTAPPELTPVVQDCYHGDGQSYRGTSSTTTTGKKCQSWSSMTPHRHQKTPENYPNAGLTMNYCRNPDADKGPWCFTTDPSVRWEYCNLKKCSGTEASVVAPPPVVLLPDVETPSEEDCMFGNGKGYRGKRATTVTGTPCQDWAAQEPHRHSIFTPETNPRAGLEKNYCRNPDGDVGGPWCYTTNPRKLYDYCDVPQCAAPSFDCGKPQVEPKKCPGRVVGGCVAHPHSWPWQVSLRTRFGMHFCGGTLISPEWVLTAAHCLEKSPRPSSYKVILGAHQEVNLEPHVQEIEVSRLFLEPTRKDIALLKLSSPAVITDKVIPACLPSPNYVVADRTECFVTGWGETQGTFGAGLLKEAQLPVIENKVCNRYEFLNGRVQSTELCAGHLAGGTDSCQGDSGGPLVCFEKDKYILQGVTSWGLGCARPNKPGVYVRVSRFVTWIEGVMRNN
Q: Which “cleavage of the chromogenic substrate Glu-Phe-Lys-pNA at 405 nm” value [2] does the source give for B3 here?
A: For each of the seven transgenic lines tested, the activity level was closely correlated with the protein expression levels as determined by ELISA

Q: What about the “streptokinase activity assay (cleavage of a chromogenic substrate, Coamatic plasminogen kit)” value [2] of the same protein?
A: Activation with streptokinase also produced activated plasminogen
